Laboratory results: patent publication US20260226152A1 (GlaxoSmithKline, published 2026)

T1: Cynomolgus monkey IL-18 (Rhesus monkey (identical to cynomolgus …, UniProt Q9BGI5 37-193))
T1 construct: Bought protein; also called Cyno IL-18; Cynomolgus IL-18
T1 sequence: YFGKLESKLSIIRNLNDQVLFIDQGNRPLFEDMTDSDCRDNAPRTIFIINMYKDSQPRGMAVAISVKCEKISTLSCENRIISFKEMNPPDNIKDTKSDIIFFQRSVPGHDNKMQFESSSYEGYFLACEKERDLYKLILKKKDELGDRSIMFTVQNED

T2: Human IL-18 (human, UniProt Q14116 37-193)
T2 construct: Recombinant, made in-house; In the BLI assay the loaded cytokine was captured on anti-Penta His sensors, so a His tag is implied but not described; also called recombinant human IL-18; interleukin 18
T2 sequence: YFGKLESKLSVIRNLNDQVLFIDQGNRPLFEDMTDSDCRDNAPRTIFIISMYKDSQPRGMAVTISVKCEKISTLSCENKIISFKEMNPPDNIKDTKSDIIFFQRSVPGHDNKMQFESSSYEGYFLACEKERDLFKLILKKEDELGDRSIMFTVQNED

T3: Human IL-23 (human, UniProt Q9NPF7 20-189; P29460 23-328)
T3 sequence 1: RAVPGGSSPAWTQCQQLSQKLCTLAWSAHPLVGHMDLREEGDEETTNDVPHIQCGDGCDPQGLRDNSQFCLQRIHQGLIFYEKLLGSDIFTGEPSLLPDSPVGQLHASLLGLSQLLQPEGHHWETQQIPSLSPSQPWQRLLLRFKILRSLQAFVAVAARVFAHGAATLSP
T3 sequence 2: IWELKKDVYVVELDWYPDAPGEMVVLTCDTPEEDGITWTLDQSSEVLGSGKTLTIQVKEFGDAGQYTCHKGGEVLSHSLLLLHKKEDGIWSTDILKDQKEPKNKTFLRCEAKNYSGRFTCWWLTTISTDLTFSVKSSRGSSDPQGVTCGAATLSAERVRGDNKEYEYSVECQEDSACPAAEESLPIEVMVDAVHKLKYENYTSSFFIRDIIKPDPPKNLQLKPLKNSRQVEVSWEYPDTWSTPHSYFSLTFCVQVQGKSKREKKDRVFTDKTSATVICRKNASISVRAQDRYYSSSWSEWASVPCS


Tests used:
Cynomolgus monkey IL-18 [1] = molecular target: T1, Cynomolgus monkey IL-18; experiment: SPR (Biacore), antibody captured on Protein A/G, cytokine as analyte, 25 C
Description: (§1) A heterodimeric bsAb, alongside anti-IL-18 and anti-IL-23 common light chain control bispecific antibodies, were assessed for binding to human and cyno IL-18 and IL-23, using the Biacore 8K and T200 (Cytiva) surface plasmon resonance (SPR) instruments. All reagents were generated recombinantly in-house with the exception of Rhesus monkey IL-18 which was purchased from R&D systems (Cat #2548-RM-025/CF). Rhesus and cynomolgus monkey amino acid sequences are identical. Therefore, the protein will be referred to as cynomolgus monkey IL-18.
(§2) Heterodimeric bsAb, anti-IL-18 and anti-IL-23 common light chain bispecific control molecules were assessed for binding to recombinant human and cynomolgus monkey IL-18 and IL-23 using the Biacore 8K and T200 (Cytiva) SPR instruments. The antibodies were captured onto Protein A/G, which was immobilised onto flow cell 2 of 8 channels (Biacore 8K) or flow cells 2, 3 and 4 (Biacore T200) of a CM5 series S sensor chip by primary amine coupling. The IL-18 or IL-23 analytes were passed over the captured antibodies at varying concentrations between 0.04-25 nM. The association phase was for 240 seconds at 30 μl/min, followed by a dissociation step of up to 1200 seconds. A 0 nM (i.e., buffer alone) injection was used to double reference the binding curves. Regeneration of the chip surface between cycles was carried out using 50 mM NaOH. The assay was run at 25° C. in HBS-EP⁺ buffer. Biacore 8K control software version 3.0 was used to run the experiment. Data was analysed using Biacore 8K Insight evaluation software version 3.0. Biacore T200 control software version 1.0 was used to run the experiment. Data was analysed using Biacore T200 evaluation software version 2.0. Affinities and kinetics were determined using the 1:1 kinetic fit inherent to the software where possible. All affinity values generated using both instruments were combined to determine geometric mean values.

Human IL-18 [2] = molecular target: T2, Human IL-18; experiment: as above
Description: as §1, §2

Human IL-23 [3] = molecular target: T3, Human IL-23; experiment: cell-based or functional assay
Human IL-18 [4] = molecular target: T2, Human IL-18; experiment: cell-based or functional assay
Human IL-23 [5] = molecular target: T3, Human IL-23; experiment: cell-based or functional assay; remark: listed apart in the source
Human IL-23 [6] = molecular target: T3, Human IL-23; experiment: cell-based or functional assay; remark: listed apart in the source
Human IL-23 [7] = molecular target: T3, Human IL-23; experiment: SPR (Biacore 8K/T200), antibody captured on Protein A/G, cytokine as analyte, 25 C, geometric mean of n=3-5
Description: as §1, §2

Cynomolgus monkey IL-23 = molecular target: T4, Cynomolgus monkey IL-23 (cynomolgus monkey); experiment: as above
T4 construct: also called Cyno IL-23
Description: as §1, §2

Cynomolgus monkey IL-18 [8] = molecular target: T1, Cynomolgus monkey IL-18; experiment: cell-based or functional assay
Human IL-18 [9] = molecular target: T2, Human IL-18; experiment: cell-based or functional assay; remark: listed apart in the source
Cynomolgus monkey IL-18 [10] = molecular target: T1, Cynomolgus monkey IL-18; experiment: SPR (Biacore 8K/T200), antibody captured on Protein A/G, cytokine as analyte, 25 C, geometric mean of n=3-5
Description: as §1, §2

Human IL-18 [11] = molecular target: T2, Human IL-18; experiment: as above
Description: as §1, §2

IC50, inhibition of IL-23-induced pSTAT3 in T cells of human whole blood (Human IL-23 [3]) [pM]	pIC50, inhibition of IL-23-induced pSTAT3 in T cells of human whole blood (Human IL-23 [3])	pIC50 (GeoMean), neutralisation of human IL-18-induced IFNγ secretion by KG-1 cells (Human IL-18 [4])	IC50 pM, inhibition of human IL-23-induced mouse IL-17A secretion in mouse splenocytes (Human IL-23 [5]) [pM]	pIC50 (M), inhibition of human IL-23-induced mouse IL-17A secretion in mouse splenocytes (Human IL-23 [5])	IC50 pM (Geomean), neutralisation of human IL-23-induced pSTAT3 in DB cells (MSD) (Human IL-23 [6]) [pM]	pIC50 (Geomean), neutralisation of human IL-23-induced pSTAT3 in DB cells (MSD) (Human IL-23 [6])	Kd (Human IL-23 [7]) [nM]	Kd (Cynomolgus monkey IL-23) [nM]	pIC50 (GeoMean), neutralisation of cynomolgus IL-18-induced IFNγ secretion by KG-1 cells (Cynomolgus monkey IL-18 [8])	Binder	other results
163	9.8	< 8.48	41.7	10.4	16.6	10.8	0.348	0.204	< 8.48	IL-23 control 1 (antibody, V domains shown, Anti-IL-23 (risankizumab) mAb plus Het-mAb Fc mutations of Heterodimeric bsAbs 1-4, silencing (LAGA) and half-life extending (YTE) mutations; also called anti-IL-23 control 1; risankizumab variable domains) VH: QVQLVQSGAEVKKPGSSVKVSCKASGYTFTDQTIHWMRQAPGQGLEWIGYIYPRDDSPKYNENFKGKVTITADKSTSTAYMELSSLRSEDTAVYYCAIPDRSGYAWFIYWGQGTLVTVSS VL: DIQMTQSPSSLSASVGDRVTITCKASRDVAIAVAWYQQKPGKVPKLLIYWASTRHTGVPSRFSGSGSRTDFTLTISSLQPEDVADYFCHQYSSYPFTFGSGTKLEIK	binding result (Cynomolgus monkey IL-18 [1]): no binding (tested: 0.04-25 nM analyte); binding result (Human IL-18 [2]): no binding (tested: 0.04-25 nM analyte)
395	9.4	9.94	111	10	58.9	10.2	0.297	0.162	10	Heterodimeric bsAb 4 (bispecific antibody, human IgG1, kappa, Het-mAb format: anti-IL-23 mAb (risankizumab) on ZA and anti-IL-18 mAb on ZB, with Fc heterodimerisation, silencing and half-life extending mutations; Stably expressed in CHO cells; also called anti-IL-23xIL-18 HETmAb) heavy 1: QVQLVQSGAEVKKPGSSVKVSCKASGYTFTDQTIHWMRQAPGQGLEWIGYIYPRDDSPKYNENFKGKVTITADKSTSTAYMELSSLRSEDTAVYYCAIPDRSGYAWFIYWGQGTLVTVSSASTKGPSVFPLAPSSKSTSGGTAALGCRVKDYFPEPVTVSWNSGALTSGVHTFPAVLQSSGLYSLSSVVTVPSSSLGTQTYICNVNHKPSNTKVDKKVEPKSCDKTHTCPPCPAPELAGAPSVFLFPPKPKDTLYITREPEVTCVVVDVSHEDPEVKFNWYVDGVEVHNAKTKPREEQYNSTYRVVSVLTVLHQDWLNGKEYKCKVSNKALPAPIEKTISKAKGQPREPQVYVYPPSRDELTKNQVSLTCLVKGFYPSDIAVEWESNGQPENNYKTTPPVLDSDGSFALVSKLTVDKSRWQQGNVFSCSVMHEALHNHYTQKSLSLSPGK light 1: DIQMTQSPSSLSASVGDRVTITCKASRDVAIAVAWYQQKPGKVPKLLIYWASTRHTGVPSRFSGSGSRTDFTLTISSLQPEDVADYFCHQYSSYPFTFGSGTKLEIKRTVAAPSVFIFPPSDEELKSGTASVECLLNNFYPREAKVQWKVDNALQSGNSQESVTEQDSKDSTYSLSSTLTLSKADYEKHKVYACEVTHQGLSSPVTKSFNRGEC heavy 2: QVQLVQSGAEVKKPGASVKVSCKVSGEISTGYYFHWVRQAPGKGLEWMGRIDPEDDSTKYAERFKDRVTMTEDTSTDTAYMELSSLRSEDTAVYYCTTWRIYRDSSGRPFYVMDAWGQGTLVTVSSASTKGPSVFPLAPSSKSTSGGTAALGCEVTDYFPEPVTVSWNSGALTSGVHTFPAVLESSGLYSLSSVVTVPSSSLGTQTYICNVNHKPSNTKVDKKVEPKSCDKTHTCPPCPAPELAGAPSVFLFPPKPKDTLYITREPEVTCVVVDVSHEDPEVKFNWYVDGVEVHNAKTKPREEQYNSTYRVVSVLTVLHQDWLNGKEYKCKVSNKALPAPIEKTISKAKGQPREPQVYVLPPSRDELTKNQVSLLCLVKGFYPSDIAVEWESNGQPENNYLTWPPVLDSDGSFFLYSKLTVDKSRWQQGNVFSCSVMHEALHNHYTQKSLSLSPGK light 2: DIQMTQSPSSVSASVGDRVTITCLASEDIYTYLTWYQQKPGKAPKLLIYGANKLQDGVPSRFSGSGSGTDYTLTISSLQPEDFATYYCLQGSKFPLTFGQGTKLEIKRTVAAPSVFIFPPSDERLKSGTASVVCLLNNFYPREAKVQWKVDNALQSGNSQESVTEQDSKDSTYSLSSRLTLSKADYEKHKVYACEVTHQGLSSPVTKSFNRGEC	Fold change (from anti-IL-23, IL-23 control 1) of IC50, IL-23-induced pSTAT3 in T cells of human whole blood (Human IL-23 [3]): 2.42 fold; IC50 (pM, Mean), neutralisation of human IL-18-induced IFNγ secretion by KG-1 cells (Human IL-18 [4]): 115 pM; Fold change (from anti-IL-23, IL-23 control 1) of IC50, IL-23-induced mouse IL-17A in mouse splenocytes (Human IL-23 [5]): 2.67 fold; Fold change (from IL-18 control 1) of IC50, LPS + IL12-induced IFN-γ in human whole blood (Human IL-18 [9]): 1.9 fold; IC50 nM, inhibition of LPS + IL12-induced IFN-γ in human whole blood (Human IL-18 [9]): 10.5 nM; pIC50, inhibition of LPS + IL12-induced IFN-γ in human whole blood (Human IL-18 [9]): 8; Kd (Cynomolgus monkey IL-18 [10]): 0.068 nM; Kd (Human IL-18 [11]): 0.035 nM; IC50 (pM, Mean), neutralisation of cynomolgus IL-18-induced IFNγ secretion by KG-1 cells (Cynomolgus monkey IL-18 [8]): 97.7 pM
